This note sets out measurements from the Immune Epitope Database (IEDB).

What is called Kd is the equilibrium constant for the complex coming apart.

The target of one test is HLA-A*01:01. The test is described as follows: IEDB peptide-MHC binding, purified MHC/direct/fluorescence; filed as Kd, often an IC50 or EC50 that approximates it; ≥ and ≤ were set here for values at or beyond the usual limits of such assays. The following applies: source organism: Camelpox virus M-96.
The target of another test is HLA-A*31:01. The description is as above. As to conditions: source organism: Camelpox virus M-96.
For a further test, the target named is HLA-B*07:02. Described as above.
A further test addresses HLA-B*15:01. Described as above. The following applies: source organism: Camelpox virus M-96.
Test [1] addresses HLA-B*27:05. The test is described as above. The following applies: source organism: Camelpox virus M-96.
The target of a further test is HLA-B*46:01. Described as above. The following applies: source organism: Camelpox virus M-96.
For a further test, the target named is HLA-B*48:01. The description is as above. The following applies: source organism: Camelpox virus M-96.
The target in a further test is HLA-B*57:01. Described as above. The following applies: source organism: Camelpox virus M-96.
The target in the next test is HLA-B*58:01. The description is as above. The following applies: source organism: Camelpox virus M-96.
For the next test, the target named is HLA-C*12:03. The test is described as above.
The target in the next test is HLA-A*02:01. Nature of the test: IEDB peptide-MHC binding, purified MHC/competitive/fluorescence; filed as Kd, often an IC50 or EC50 that approximates it; ≥ and ≤ were set here for values at or beyond the usual limits of such assays. As to conditions: source organism: Vaccinia virus WR.
The next test addresses HLA-A*11:01. Described as above. As to conditions: source organism: Vaccinia virus WR.
In the next test the target is HLA-A*26:01. The test is described as above. The following applies: source organism: Vaccinia virus WR.
In another test the target is HLA-A*26:02. The description is as above. The following applies: source organism: Vaccinia virus WR.
The next test addresses HLA-A*30:01. The description is as above. As to conditions: source organism: Vaccinia virus WR.
The next test addresses HLA-A*68:02. The description is as above. The following applies: source organism: Vaccinia virus WR.
For the next test, the target named is HLA-B*15:17. Described as above. As to conditions: source organism: Vaccinia virus WR.
A further test addresses HLA-B*35:01. Described as above. As to conditions: source organism: Vaccinia virus WR.
The target in test [2] is HLA-B*27:05. Described as above.
The next test concerns the target HLA-A*24:02. The test is described as above.
The target of another test is HLA-C*03:03. The test is described as follows: IEDB peptide-MHC binding, purified MHC/direct/fluorescence; filed as Kd, often an IC50 or EC50 that approximates it; ≥ and ≤ were set here for values at or beyond the usual limits of such assays. The following applies: source organism: Yersinia frederiksenii ATCC 33641.
Another test deals with HLA-C*15:02. Described as above.
The target in a further test is HLA-A*02:16. The test is described as follows: IEDB peptide-MHC binding, purified MHC/competitive/fluorescence; filed as Kd, often an IC50 or EC50 that approximates it; ≥ and ≤ were set here for values at or beyond the usual limits of such assays. As to conditions: source organism: Pseudomonas aeruginosa PACS2.
The target of a further test is HLA-C*14:02. The test is described as follows: IEDB peptide-MHC binding, purified MHC/direct/fluorescence; filed as Kd, often an IC50 or EC50 that approximates it; ≥ and ≤ were set here for values at or beyond the usual limits of such assays. As to conditions: source organism: Entamoeba histolytica HM-1:IMSS.
The mark [3] stands for this setting: source organism: Yersinia frederiksenii ATCC 33641.
The mark [4] stands for this setting: source organism: Entamoeba histolytica HM-1:IMSS.

Bounds are passed on as bounds.

In the case of FVFEATKLY, the dissociation constant Kd with HLA-A*01:01 is at least 20 µM; in the test with HLA-A*31:01, at least 20 µM; in the test with HLA-B*07:02 (source organism: Camelpox virus M-96), at least 20 µM; with HLA-B*15:01, 17.7 nM; with HLA-B*27:05 [1] it was at least 20 µM; with HLA-B*46:01, at least 20 µM. For the same sequence, the Kd with HLA-B*48:01 is at least 20 µM; with HLA-B*57:01 it was at least 20 µM; with HLA-B*58:01, at least 20 µM; with HLA-C*12:03 (source organism: Vaccinia virus WR), at most 1 nM; with HLA-A*02:01, at least 20 µM; with HLA-A*11:01 it was 2080 nM. Also, the Kd in the test with HLA-A*26:01 was 16.7 nM; in the test with HLA-A*26:02, 66.8 nM; in the test with HLA-A*30:01, at least 20 µM; with HLA-A*68:02, 49.6 nM; in the test with HLA-B*15:17, 120 nM; with HLA-B*35:01 it was 5.7 nM.
In the test with HLA-B*27:05 [2] (source organism: Influenza A virus (A/Hong Kong/CUHK13527/2003(H3N2))), GKLNRLIGK displayed a Kd of 1840 nM.
With KQWRGDKML, in the test with HLA-B*27:05 [2] (source organism: Bacillus thuringiensis str. Al Hakam), the Kd was determined as 85.2 nM.
KYNGIITDTI returned a Kd with HLA-A*24:02 (source organism: Influenza A virus (A/goose/Guangdong/1/1996(H5N1))) of 0.2 nM.
For the sequence LAIEATLAF, the values for the Kd with HLA-C*03:03, in the test with HLA-C*12:03 (setting [3]) and with HLA-C*15:02 (setting [3]) were at least 20 µM, 1040 nM and at least 20 µM, respectively.
PYMSALFWI displayed a Kd in the test with HLA-A*24:02 (source organism: Cryptosporidium parvum Iowa II) of 0.8 nM.
RLTGREGAV: the figures for the Kd in the test with HLA-B*07:02 (source organism: Pseudomonas aeruginosa) and in the test with HLA-A*02:16 were 7.02 µM and 345 nM, respectively.
Regarding RYSGFVRTLF, the Kd with HLA-A*24:02 (source organism: Influenza A virus (A/turkey/Ohio/313053/2004(H3N2))) is at most 0.1 nM.
Take SWLYNYFVF: the Kd in the test with HLA-C*14:02 is 438 nM; with HLA-C*15:02 (setting [4]), at least 20 µM; in the test with HLA-A*24:02 (setting [4]) it was 0.3 nM.
